Reference: the supplement of paper PMC9170038

Test system: MS2 coat protein
Assay: apparent KD of MS2 coat protein; designed switch direction (-1 OFF switch, 1 ON switch): -1; higher = weaker reporter binding
Procedure, shortened: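 Designed RNA switches with common flanks were transcribed on Illumina chips by stalled E. coli RNA polymerase and titrated with SNAP-549-labelled MS2 coat protein, from 0.7 or 1.5 nM doubling to 3 µM, in Tris-HCl pH 7.5 buffer with KCl, MgCl2, BSA, DTT, tRNA and Tween-20. Steps lasted 0.8–1.5 h (lowest) to 10–20 min (highest). Titrations ran without input, with 200 uM small-molecule ligand, or with an oligonucleotide input. Normalised cluster fluorescence was curve-fitted, and apparent KD is the per-design median over clusters.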

[1] = Eterna round: R95, input ligand: microRNA oligo, concentration not stated
[2] = input ligand: microRNA oligo, concentration not stated
[3] = Eterna round: R95, input ligand: FMN 200 uM
[4] = Eterna round: R95, input ligand: none

## CAAUUCCGAGGAUAUACAUGAGGAUCACCCAUGUCGGGCCUCAGCGUUUAGCGCUUAAGUAGAAGGUGGGUUUC [JL Riri mod 5] (puzzle: Exclusion 3)
[1]
  apparent KD of MS2 coat protein: 32.5 nM

## CACAUUACAAAGGAUAUCUGACCAUGCCCUGGCAGAGAAGGUUGGACAUGAGGAUCACCCAUGUGUAUCCAAGU [Eternabot (Original) Solution 6] (Eterna round: R97, puzzle: Exclusion 6)
Input ligand: FMN 200 uM
  apparent KD of MS2 coat protein: 37.7 nM
Input ligand: none
  apparent KD of MS2 coat protein: 26.8 nM

## CACCAUCGUGUAAGGAUAUCGAGGCUUAGCGGGUGUGAGAAGGUACAUGAGGAUCACCCAUGUUACGAUUUGCG [Eternabot (L1) Solution 77] (Eterna round: R97, puzzle: Brourd's mod of Exclusion 4)
Input ligand: FMN 200 uM
  apparent KD of MS2 coat protein: 28.8 nM
Input ligand: none
  apparent KD of MS2 coat protein: 25.6 nM

## CACCCACAUGAGGAUCACCCAUGUGAGGAUAUGAUACUAUGUACUUCGGUACAUAGUAUCAGAAGGCACAGGUG [Ex1-3: 61] (Eterna round: R96, puzzle: Exclusion 1)
Input ligand: FMN 200 uM
  apparent KD of MS2 coat protein: 102 nM
[2]
  apparent KD of MS2 coat protein: 25.7 nM
Input ligand: none
  apparent KD of MS2 coat protein: 28 nM

## CACCCACAUGAGGAUCACCCAUGUGAGGAUAUGAUACUAUGUACUUCGGUACAUAGUAUCAGAAGGCACAGGUG [Ex1-3: 61] (puzzle: Exclusion 1)
[1]
  apparent KD of MS2 coat protein: 30.3 nM

## CACCGUUAAGUAGGAUAUCGUACAUGAGGAUCACCCAUGUAAUAAAUGAGAAUUUCGGAUGUAUGCGAGAAGGACUAAAUCGGC [Ostricism 45 - Jieux - Exclusion NG 2] (Eterna round: R96, puzzle: Exclusion NG 2)
[2]
  apparent KD of MS2 coat protein: 39 nM

## CACCGUUACUGAGGAUAUGGCACAUGAGGAUCACCCAUGUAAUAAAUGAGAAUUUCGGAUGUAUUCCAGAAGGCAGUAACCGGC [Ostricism 69 - Jieux - Exclusion NG 2] (Eterna round: R96, puzzle: Exclusion NG 2)
Input ligand: FMN 200 uM
  apparent KD of MS2 coat protein: 30 nM
[2]
  apparent KD of MS2 coat protein: 23.3 nM
Input ligand: none
  apparent KD of MS2 coat protein: 27.1 nM

## CACCUACAUGAGGAUCACCCAUGUGAGGAUAUGGAACAACAAGAACAUUUACUUGUUCCCAGAAGGCACAUUGG [jun14#1] (Eterna round: R97, puzzle: Exclusion 1)
Input ligand: FMN 200 uM
  apparent KD of MS2 coat protein: 64.3 nM
Input ligand: none
  apparent KD of MS2 coat protein: 130 nM

## CACGAACAUGAGGAUCACCCAUGUCAGGAUAUGAGGCUUUGCGUGCCGCAUUUUGGUCUUAGAAGGGACAGCCG [Eternabot (L2) Solution 49] (Eterna round: R97, puzzle: Exclusion 1)
Input ligand: FMN 200 uM
  apparent KD of MS2 coat protein: 22.3 nM
Input ligand: none
  apparent KD of MS2 coat protein: 23 nM

## CACGAAUUGUGAGGAUAUGUGCGACAAAGUUGCACAGAAGGCACAUGAGGAUCACCCAUGUAAGCUAGGUCGAAAGACCUAGCG [Omei Exc(NG)1 Av1] (Eterna round: R96, puzzle: Exclusion NG 1)
Input ligand: FMN 200 uM
  apparent KD of MS2 coat protein: 215 nM
[2]
  apparent KD of MS2 coat protein: 22.7 nM
Input ligand: none
  apparent KD of MS2 coat protein: 56.4 nM

## CAGACACAUGAGGAUCACCCAUGUGAGGAUAUGCGUACGUUGUCCGUAGGCGACGUGCGCAGAAGGCGCAUUGG [JL-ex1-3.12 Eli mod] (puzzle: Exclusion 1)
[1]
  apparent KD of MS2 coat protein: 90.3 nM

## CAGCGUUCAGGAUAUACAUGAGGAUCACCCAUGUGUUCCAGCUAGGAAACUAGCAAAUGUAGAAGGGAACGCUG [Mat - Exclusion 3 - JL Mod - D1] (Eterna round: R97, puzzle: Exclusion 3)
Input ligand: FMN 200 uM
  apparent KD of MS2 coat protein: 463 nM
Input ligand: none
  apparent KD of MS2 coat protein: 125 nM

## CAGCUGAAUGUGAGGAUAUGUCGAGCUGCGGCUCGAUAGAAGGCACAUGAGGAUCACCCAUGUCUCAACAGCUG [BmEx4/2-C3] (Eterna round: R97, puzzle: Brourd's mod of Exclusion 4)
Input ligand: FMN 200 uM
  apparent KD of MS2 coat protein: 215 nM
Input ligand: none
  apparent KD of MS2 coat protein: 31.2 nM

## CAGGAGUCACGAGGAUAUCUGGCUAAACGAACGAGAGAAGGUGUAGACUACCACAUGAGGAUCACCCAUGUUAUGACUAUACUA [Eternabot solution 30] (Eterna round: R96, puzzle: Exclusion NG 1)
Input ligand: FMN 200 uM
  apparent KD of MS2 coat protein: 14.8 nM
[2]
  apparent KD of MS2 coat protein: 9.94 nM
Input ligand: none
  apparent KD of MS2 coat protein: 17.1 nM

## CAGUACAGAGGAUAUACAUGAGGAUCACCCAUGUGUUCCAGCUAGGAAACUAGCGAAUGUAGAAGGCUGUACUG [jl-ex3-4.23 salish99 mod] (Eterna round: R97, puzzle: Exclusion 3)
Input ligand: FMN 200 uM
  apparent KD of MS2 coat protein: 166 nM
Input ligand: none
  apparent KD of MS2 coat protein: 273 nM

## CAGUACUACAAGCUUCGGGACAUGAGGAUCACCCAUGUUCGUCUUAUUGAUCUAGGUACGCUGACGUACCUAGAUCU [JL-sv1-2.13 Brourd mod] (puzzle: Sensor v3, turn-off variant 1)
[3]
  apparent KD of MS2 coat protein: 18.6 nM
[1]
  apparent KD of MS2 coat protein: 32.4 nM
[4]
  apparent KD of MS2 coat protein: 16.1 nM

## CAGUACUGAGGAUAUACAUGAGGAUCACCCAUGUGAACCAGCUAGGAUACUAGCAAAAGUAGAAGGCAGUACUG [Mat - Exclusion 3 - Eli Mod - D17] (Eterna round: R97, puzzle: Exclusion 3)
Input ligand: FMN 200 uM
  apparent KD of MS2 coat protein: 67 nM
Input ligand: none
  apparent KD of MS2 coat protein: 71.4 nM

## CAGUACUGAGGAUAUACAUGAGGAUCACCCAUGUGAGCGAUACUAGUGAGGUCGAUUAGUAGAAGGCAGUACUG [Mat X3R4 m33] (Eterna round: R97, puzzle: Exclusion 3)
Input ligand: FMN 200 uM
  apparent KD of MS2 coat protein: 353 nM
Input ligand: none
  apparent KD of MS2 coat protein: 32 nM

## CAGUACUGAGGAUAUACAUGAGGAUCACCCAUGUGAUAAGGUUAGGAAACUAACCUAUGUAGAAGGCAGUACUG [Eli x3 4.08] (Eterna round: R97, puzzle: Exclusion 3)
Input ligand: FMN 200 uM
  apparent KD of MS2 coat protein: 603 nM
Input ligand: none
  apparent KD of MS2 coat protein: 104 nM

## CAGUACUGAGGAUAUACAUGAGGAUCACCCAUGUGCUUUAGCUAGGAUACUAGCAUUAGUAGAAGGCAGUACUG [Fiskers Ex 3 828 mod 9] (puzzle: Exclusion 3)
[1]
  apparent KD of MS2 coat protein: 11.3 nM

## CAGUACUGAGGAUAUACAUGAGGAUCACCCAUGUGUUCCAGCUAGGAAACUAGCAAAGGUAGAAGGCAGUACUG [salish99_ex3_r3_065] (Eterna round: R96, puzzle: Exclusion 3)
[2]
  apparent KD of MS2 coat protein: 23.2 nM

## CAGUACUGAGGAUAUACAUGAGGAUCACCCAUGUGUUCCAGCUAGGAAACUAGCAAAGGUAGAAGGCAGUACUG [salish99_ex3_r3_065] (puzzle: Exclusion 3)
[3]
  apparent KD of MS2 coat protein: 587 nM
[1]
  apparent KD of MS2 coat protein: 23.9 nM
[4]
  apparent KD of MS2 coat protein: 23.3 nM

## CAGUACUGAGGAUAUACAUGAGGAUCACCCAUGUGUUCCAGCUAGGAAACUAGCAGAAGUAGAAGGCAGUACUG [salish99_ex3_r3_067] (Eterna round: R96, puzzle: Exclusion 3)
Input ligand: FMN 200 uM
  apparent KD of MS2 coat protein: 311 nM
[2]
  apparent KD of MS2 coat protein: 17 nM
Input ligand: none
  apparent KD of MS2 coat protein: 23.3 nM

## CAGUACUGAGGAUAUACAUGAGGAUCACCCAUGUGUUCCAGCUAGGAAACUAGCAGAAGUAGAAGGCAGUACUG [salish99_ex3_r3_067] (puzzle: Exclusion 3)
[3]
  apparent KD of MS2 coat protein: 425 nM
[1]
  apparent KD of MS2 coat protein: 25.5 nM
[4]
  apparent KD of MS2 coat protein: 23.9 nM

## CAGUACUGAGGAUAUACAUGAGGAUCACCCAUGUGUUCCAGCUAGGAAACUAGGAAAAGUAGAAGGCAGUACUG [salish99_ex3_r3_069] (puzzle: Exclusion 3)
[1]
  apparent KD of MS2 coat protein: 23.1 nM

## CAGUACUGAGGAUAUACAUGAGGAUCACCCAUGUGUUCCGGCUAGGAUACUAGCAAAGGUAGAAGGCAGUACUG [Mat - Exclusion 3 - Eli Mod - D22] (Eterna round: R97, puzzle: Exclusion 3)
Input ligand: FMN 200 uM
  apparent KD of MS2 coat protein: 458 nM
Input ligand: none
  apparent KD of MS2 coat protein: 35.4 nM

## CAGUACUGAGGAUAUACAUGAGGAUCACCCAUGUUUUCCAGCUAGGAAACUAGCAAAUGUAGAAGGCAGUACUG [Salish 065 m5] (Eterna round: R97, puzzle: Exclusion 3)
Input ligand: FMN 200 uM
  apparent KD of MS2 coat protein: 253 nM
Input ligand: none
  apparent KD of MS2 coat protein: 25.4 nM

## CAGUACUGAGGAUAUACAUGAGGAUCACCCAUGUUUUCCAGCUAGGAUACUAGCAAGUGUAGAAGGCAGUACUG [Mat - Exclusion 3 - Eli Mod - D6] (Eterna round: R97, puzzle: Exclusion 3)
Input ligand: FMN 200 uM
  apparent KD of MS2 coat protein: 273 nM
Input ligand: none
  apparent KD of MS2 coat protein: 24.5 nM

## CAGUACUGCAGGCUUAGGGACAUGAGGAUCACCCAUGUUCGUCUUAUUGAUCUAGGUACGCUGACGUACCUAGAUCU [JL-sv1-2.15 Brourd mod] (puzzle: Sensor v3, turn-off variant 1)
[3]
  apparent KD of MS2 coat protein: 16.9 nM
[1]
  apparent KD of MS2 coat protein: 19 nM
[4]
  apparent KD of MS2 coat protein: 18.1 nM

## CAUACAGUAGUCAGGAUAUUGCAACACACACGGAACGAGAAGGGACAUGAGGAUCACCCAUGUAUACUGUAAAG [EX-4 Malc #5] (puzzle: Brourd's mod of Exclusion 4)
[3]
  apparent KD of MS2 coat protein: 16 nM
[1]
  apparent KD of MS2 coat protein: 21 nM
[4]
  apparent KD of MS2 coat protein: 24.7 nM

## CAUACAGUAGUCAGGAUAUUGGAAGAGACACGGAACGAGAAGGGACAUGAGGAUCACCCAUGUAUACUGUAAAG [EX-4 Malc #4] (Eterna round: R96, puzzle: Brourd's mod of Exclusion 4)
Input ligand: FMN 200 uM
  apparent KD of MS2 coat protein: 22.3 nM
[2]
  apparent KD of MS2 coat protein: 25.5 nM
Input ligand: none
  apparent KD of MS2 coat protein: 29.9 nM
